Test results published in article PMC4546058.

Legend:
[1] = molecular target: Str enolase 137/363–1 (ΔK435) (Streptococcus pyogenes) (UniProt P69949); assay: AUC; sedimentation velocity, Beckman XL-I, 20°C, 30 000-37 000 RPM, TME-SO4 (50 mM Tris, 1 mM MgSO4, 0.1 mM EDTA, 44 mN H2SO4, pH 7.4); c(s) in Sedfit; octamer to 8 monomers
[2] = molecular target: Str enolase 137/363–1 (ΔK435) (Streptococcus pyogenes) (UniProt P69949)
[3] = molecular target: Str enolase 137/363–2 (ΔK434-K435) (Streptococcus pyogenes) (UniProt P69949); assay: AUC; sedimentation velocity, Beckman XL-I, 20°C, 30 000-37 000 RPM, TME-SO4 (50 mM Tris, 1 mM MgSO4, 0.1 mM EDTA, 44 mN H2SO4, pH 7.4); c(s) in Sedfit; octamer to 8 monomers
[4] = molecular target: Str enolase 137/363–2 (ΔK434-K435) (Streptococcus pyogenes) (UniProt P69949)
[5] = molecular target: Str enolase 137/363–3 (ΔL433-K435) (Streptococcus pyogenes) (UniProt P69949); assay: AUC; sedimentation velocity, Beckman XL-I, 20°C, 30 000-37 000 RPM, TME-SO4 (50 mM Tris, 1 mM MgSO4, 0.1 mM EDTA, 44 mN H2SO4, pH 7.4); c(s) in Sedfit; octamer to 8 monomers
[6] = molecular target: Str enolase 137/363–3 (ΔL433-K435) (Streptococcus pyogenes) (UniProt P69949)
[7] = molecular target: Str enolase 137/363–4 (ΔN432-K435) (Streptococcus pyogenes) (UniProt P69949); assay: AUC; sedimentation velocity, Beckman XL-I, 20°C, 30 000-37 000 RPM, TME-SO4 (50 mM Tris, 1 mM MgSO4, 0.1 mM EDTA, 44 mN H2SO4, pH 7.4); c(s) in Sedfit; octamer to 8 monomers
[8] = molecular target: Str enolase 137/363–4 (ΔN432-K435) (Streptococcus pyogenes) (UniProt P69949)
[9] = molecular target: Str enolase 137/363–5 (ΔY431-K435) (Streptococcus pyogenes) (UniProt P69949); assay: AUC; sedimentation velocity, Beckman XL-I, 20°C, 30 000-37 000 RPM, TME-SO4 (50 mM Tris, 1 mM MgSO4, 0.1 mM EDTA, 44 mN H2SO4, pH 7.4); c(s) in Sedfit; octamer to 8 monomers
[10] = molecular target: Str enolase 137/363–5 (ΔY431-K435) (Streptococcus pyogenes) (UniProt P69949)
[11] = molecular target: Str enolase 137/363–6 (ΔF430-K435) (Streptococcus pyogenes) (UniProt P69949)
[12] = molecular target: Str enolase 137/363–6 (ΔF430-K435) (Streptococcus pyogenes) (UniProt P69949); remark: listed apart in the source
[13] = molecular target: Str enolase 137/363–8 (ΔK428-K435) (Streptococcus pyogenes) (UniProt P69949)
[14] = molecular target: Str enolase 137/363–8 (ΔK428-K435) (Streptococcus pyogenes) (UniProt P69949); remark: listed apart in the source
[15] = molecular target: Str enolase DB E363G (Streptococcus pyogenes) (UniProt P69949); assay: AUC; sedimentation velocity, Beckman XL-I, 20°C, 30 000-37 000 RPM, TME-SO4 (50 mM Tris, 1 mM MgSO4, 0.1 mM EDTA, 44 mN H2SO4, pH 7.4); c(s) in Sedfit; octamer to 8 monomers
[16] = molecular target: Str enolase DB E363G (Streptococcus pyogenes) (UniProt P69949)
[17] = molecular target: Str enolase DB F137L (Streptococcus pyogenes) (UniProt P69949); assay: AUC; sedimentation velocity, Beckman XL-I, 20°C, 30 000-37 000 RPM, TME-SO4 (50 mM Tris, 1 mM MgSO4, 0.1 mM EDTA, 44 mN H2SO4, pH 7.4); c(s) in Sedfit; octamer to 8 monomers
[18] = molecular target: Str enolase DB F137L (Streptococcus pyogenes) (UniProt P69949)
[19] = molecular target: enolase from Streptococcus pyogenes F137L/E363G (Streptococcus pyogenes) (UniProt P69949); assay: AUC; sedimentation velocity, Beckman XL-I, 20°C, 30 000-37 000 RPM, TME-SO4 (50 mM Tris, 1 mM MgSO4, 0.1 mM EDTA, 44 mN H2SO4, pH 7.4); c(s) in Sedfit; octamer to 8 monomers
[20] = molecular target: enolase from Streptococcus pyogenes F137L/E363G (Streptococcus pyogenes) (UniProt P69949)

Str enolase 137/363–1 (ΔK435) (from UniProt P69949 1-434) (enzyme)
stoichiometry N [1]: 8
Molecular Activity (2-phosphoglycerate to phosphoenolpyruvate, 20°C), taken as the amount of octamer [2]: 4040 min⁻¹

Str enolase 137/363–2 (ΔK434-K435) (from UniProt P69949 1-433) (enzyme)
stoichiometry N [3]: 8
Molecular Activity (2-phosphoglycerate to phosphoenolpyruvate, 20°C), taken as the amount of octamer [4]: 1730 min⁻¹

Str enolase 137/363–3 (ΔL433-K435) (from UniProt P69949 1-432) (enzyme)
stoichiometry N [5]: 8
Molecular Activity (2-phosphoglycerate to phosphoenolpyruvate, 20°C), taken as the amount of octamer [6]: 497 min⁻¹

Str enolase 137/363–4 (ΔN432-K435) (from UniProt P69949 1-431) (enzyme)
stoichiometry N [7]: 8
Molecular Activity (2-phosphoglycerate to phosphoenolpyruvate, 20°C), taken as the amount of octamer [8]: 27 min⁻¹

Str enolase 137/363–5 (ΔY431-K435) (from UniProt P69949 1-430) (enzyme)
stoichiometry N [9]: 8
Molecular Activity (2-phosphoglycerate to phosphoenolpyruvate, 20°C), taken as the amount of octamer [10]: 0.36 min⁻¹

Str enolase 137/363–6 (ΔF430-K435) (from UniProt P69949 1-429) (enzyme)
total amount of octamer estimated from activity assays, as percent of the concentration of the Str enolase DB [11]: 0.0002%
Molecular Activity (2-phosphoglycerate to phosphoenolpyruvate, 20°C), taken as the amount of octamer [12]: 0.22 min⁻¹

Str enolase 137/363–8 (ΔK428-K435) (from UniProt P69949 1-427) (enzyme)
total amount of octamer estimated from activity assays, as percent of the concentration of the Str enolase DB [13]: 0.0002%
Molecular Activity (2-phosphoglycerate to phosphoenolpyruvate, 20°C), taken as the amount of octamer [14]: 0.08 min⁻¹

Str enolase DB E363G (from UniProt P69949 1-435) (enzyme)
stoichiometry N [15]: 8
Molecular Activity (2-phosphoglycerate to phosphoenolpyruvate, 20°C), taken as the amount of octamer [16]: 8460 min⁻¹

Str enolase DB F137L (from UniProt P69949 1-435) (enzyme)
stoichiometry N [17]: 8
Molecular Activity (2-phosphoglycerate to phosphoenolpyruvate, 20°C), taken as the amount of octamer [18]: 7160 min⁻¹

enolase from Streptococcus pyogenes F137L/E363G (from UniProt P69949 1-435) (enzyme)
stoichiometry N [19]: 8
Molecular Activity (2-phosphoglycerate to phosphoenolpyruvate, 20°C), taken as the amount of octamer [20]: 5250 min⁻¹
